Among the data in patent US7144983 are IC50 values, retold here.

This assay has as its target trkA + p75 receptors on rat PC12 pheochromocytoma cells (rat) (UniProt P35739). In words: 125I-hNGF displacement, PC12 cells (trkA+p75), 4 C.

Sequence of trkA + p75 receptors on rat PC12 pheochromocytoma cells (rat) (P35739 33-799, chain 1 of 2): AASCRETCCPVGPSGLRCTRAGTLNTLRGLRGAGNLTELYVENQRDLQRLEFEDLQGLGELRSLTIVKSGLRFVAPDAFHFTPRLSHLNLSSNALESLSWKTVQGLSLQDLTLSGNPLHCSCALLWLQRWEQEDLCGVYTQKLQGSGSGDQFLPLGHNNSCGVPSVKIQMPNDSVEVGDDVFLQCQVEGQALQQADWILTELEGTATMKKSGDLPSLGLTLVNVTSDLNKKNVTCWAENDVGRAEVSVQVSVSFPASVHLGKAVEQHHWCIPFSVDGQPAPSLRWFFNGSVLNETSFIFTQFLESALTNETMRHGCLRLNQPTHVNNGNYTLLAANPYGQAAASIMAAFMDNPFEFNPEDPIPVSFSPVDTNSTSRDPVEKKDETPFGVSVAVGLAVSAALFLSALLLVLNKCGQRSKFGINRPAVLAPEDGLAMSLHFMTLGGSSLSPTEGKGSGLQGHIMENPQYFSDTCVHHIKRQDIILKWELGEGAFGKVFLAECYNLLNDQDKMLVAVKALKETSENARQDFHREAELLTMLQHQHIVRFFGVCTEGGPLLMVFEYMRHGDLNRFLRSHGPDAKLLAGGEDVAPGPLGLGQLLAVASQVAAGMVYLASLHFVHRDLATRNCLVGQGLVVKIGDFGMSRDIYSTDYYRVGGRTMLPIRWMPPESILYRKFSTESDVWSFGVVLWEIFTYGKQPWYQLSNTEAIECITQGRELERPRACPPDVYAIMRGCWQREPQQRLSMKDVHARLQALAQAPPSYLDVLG
Sequence of trkA + p75 receptors on rat PC12 pheochromocytoma cells (rat) (P07174 30-425, chain 2 of 2, further chain): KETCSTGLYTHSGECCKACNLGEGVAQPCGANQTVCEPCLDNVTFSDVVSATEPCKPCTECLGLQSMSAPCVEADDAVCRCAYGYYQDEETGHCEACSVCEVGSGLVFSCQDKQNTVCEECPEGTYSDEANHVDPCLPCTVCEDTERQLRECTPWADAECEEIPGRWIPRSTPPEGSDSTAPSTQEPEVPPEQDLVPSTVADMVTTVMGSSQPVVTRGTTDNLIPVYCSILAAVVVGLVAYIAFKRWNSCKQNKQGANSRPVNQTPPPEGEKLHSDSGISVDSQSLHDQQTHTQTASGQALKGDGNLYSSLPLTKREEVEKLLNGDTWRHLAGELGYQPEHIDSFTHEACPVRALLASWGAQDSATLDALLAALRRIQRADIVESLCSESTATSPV

In general, IC50 refers to the concentration at which inhibition is half-maximal. Take “hNGF (1-118) (from UniProt P01138 122-239) (ligand)”: the IC50 came out at 0.05 nM.

With “hNGF Mut 4 (H4A, H8A, R9A) (from UniProt P01138 122-241) (ligand)”, the IC50 came out at 0.39 nM. Turning to “hNGF (10-118) (from UniProt P01138 131-239) (ligand)”, the IC50 stood at 4.1 nM. The figure for “mNGF (1-118) (from UniProt P01139 122-239) (ligand)” is 0.06 nM; for “hNGF (6-118) (from UniProt P01138 127-239) (ligand)” it is 0.13 nM; for “hNGF Mut 2 (H4D) (from UniProt P01138 122-241) (ligand)” it is 0.43 nM. For “hNGF Mut 1 (H4A) (from UniProt P01138 122-241) (ligand)” the value was 0.18 nM; for “hNGF Mut 3 (R9A) (from UniProt P01138 122-241) (ligand)”, 0.18 nM.
